Values of other authors as cited in publication PMC6281825.

Biological target: Complement C5 (Homo sapiens) (UniProt P01031)

Kd: 100 pM
Substance: eculizumab
